According to the supplement of paper PMC5998384:

Columns and labels:
HeLa Kyoto [1] = experiment: solubility change mitosis vs G1/S (difference of NP-40 vs SDS log2 ratios) (log2 ratio difference); higher = more soluble in mitosis
HeLa Kyoto [2] = experiment: solubility in G1/S (NP-40 vs SDS abundance) (log2 ratio); higher = more soluble; details: cell cycle stage: G1/S
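Throughout, for solubility change mitosis vs G1/S (difference of NP-40 vs SDS log2 ratios): synchronized HeLa Kyoto cells (double thymidine block for G1/S, nocodazole release for mitosis), protein amounts in NP-40 versus SDS lysates quantified by mass spectrometry, three biological replicates.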
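Throughout, for solubility in G1/S (NP-40 vs SDS abundance): HeLa Kyoto cells arrested at G1/S by double thymidine block, proteins quantified by TMT10plex mass spectrometry in mild NP-40 versus SDS extracts, three biological replicates.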

Chain of MBD4 (chain, as listed by the source): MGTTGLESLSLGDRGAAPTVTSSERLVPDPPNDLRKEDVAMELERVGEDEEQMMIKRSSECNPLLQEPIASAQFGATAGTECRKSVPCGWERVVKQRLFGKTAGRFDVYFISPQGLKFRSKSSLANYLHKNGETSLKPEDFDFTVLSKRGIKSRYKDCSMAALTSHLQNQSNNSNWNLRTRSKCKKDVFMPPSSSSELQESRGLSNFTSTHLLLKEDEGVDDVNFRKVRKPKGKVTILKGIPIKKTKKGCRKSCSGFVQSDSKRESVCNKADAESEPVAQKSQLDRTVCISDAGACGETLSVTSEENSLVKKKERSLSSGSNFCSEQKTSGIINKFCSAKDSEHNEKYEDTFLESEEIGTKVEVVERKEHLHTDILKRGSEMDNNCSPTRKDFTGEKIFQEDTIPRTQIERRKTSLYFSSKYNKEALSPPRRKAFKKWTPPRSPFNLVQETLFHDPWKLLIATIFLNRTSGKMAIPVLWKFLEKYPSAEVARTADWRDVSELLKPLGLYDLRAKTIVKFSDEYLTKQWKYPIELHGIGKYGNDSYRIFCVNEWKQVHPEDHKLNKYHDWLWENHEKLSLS

Row | Substance | solubility change mitosis (log2) (HeLa Kyoto [1]) | solubility in G1/S (log2) (HeLa Kyoto [2])
1 | MDFSFSFMQGIMGNTIQQPPQLIDSANIRQEDAFDNNSDIAEDGGQTPYEATLQQGFQYPATTEDLPPLTNGYPSSISVYETQTKYQSYNQYPNGSANGFGAVRNFSPTDYYHSEIPNTRPHEILEKPSPPQPPPPPSVPQTVIPKKTGSPEIKLKITKTIQNGRELFESSLCGDLLNEVQASEHTKSKHESRKEKRKKSNKHDSSRSEERKSHKIPKLEPEEQNRPNERVDTVSEKPREEPVLKEEAPVQPILSSVPTTEVSTGVKFQVGDLVWSKVGTYPWWPCMVSSDPQLEVHTKINTRGAREYHVQFFSNQPERAWVHEKRVREYKGHKQYEELLAEATKQASNHSEKQKIRKPRPQRERAQWDIGIAHAEKALKMTREERIEQYTFIYIDKQPEEALSQAKKSVASKTEVKKTRRPRSVLNTQPEQTNAGEVASSLSSTEIRRHSQRRHTSAEEEEPPPVKIAWKTAAARKSLPASITMHKGSLDLQKCNMSPVVKIEQVFALQNATGDGKFIDQFVYSTKGIGNKTEISVRGQDRLIISTPNQRNEKPTQSVSSPEATSGSTGSVEKKQQRRSIRTRSESEKSTEVVPKKKIKKEQVETVPQATVKTGLQKGASEISDSCKPLKKRSRASTDVEMTSSAYRDTSDSDSRGLSDLQVGFGKQVDSPSATADADVSDVQSMDSSLSRRGTGMSKKDTVCQICESSGDSLIPCEGECCKHFHLECLGLASLPDSKFICMECKTGQHPCFSCKVSGKDVKRCSVGACGKFYHEACVRKFPTAIFESKGFRCPQHCCSACSMEKDIHKASKGRMMRCLRCPVAYHSGDACIAAGSMLVSSYILICSNHSKRSSNSSAVNVGFCFVCARGLIVQDHSDPMFSSYAYKSHYLLNESNRAELMKLPMIPSSSASKKKCEKGGRLLCCESCPASFHPECLSIEMPEGCWNCNDCKAGKKLHYKQIVWVKLGNYRWWPAEICNPRSVPLNIQGLKHDLGDFPVFFFGSHDYYWVHQGRVFPYVEGDKSFAEGQTSINKTFKKALEEAAKRFQELKAQRESKEALEIEKNSRKPPPYKHIKANKVIGKVQIQVADLSEIPRCNCKPADENPCGLESECLNRMLQYECHPQVCPAGDRCQNQCFTKRLYPDAEIIKTERRGWGLRTKRSIKKGEFVNEYVGELIDEEECRLRIKRAHENSVTNFYMLTVTKDRIIDAGPKGNYSRFMNHSCNPNCETQKWTVNGDVRVGLFALCDIPAGMELTFNYNLDCLGNGRTECHCGADNCSGFLGVRPKSACASTNEEKAKNAKLKQKRRKIKTEPKQMHEDYCFQCGDGGELVMCDKKDCPKAYHLLCLNLTQPPYGKWECPWHQCDECSSAAVSFCEFCPHSFCKDHEKGALVPSALEGRLCCSEHDPMAPVSPEYWSKIKCKWESQDHGEEVKE [WHSC1L1] | 0.362 | -0.563
2 | MAKGRVAERSQLGAHHTTPVGDGAAGTRGLAAPGSRDHQKEKSWVEAGSARMSLLILVSIFLSAAFVMFLVYKNFPQLSEEERVNMKVPRDMDDAKALGKVLSKYKDTFYVQVLVAYFATYIFLQTFAIPGSIFLSILSGFLYPFPLALFLVCLCSGLGASFCYMLSYLVGRPVVYKYLTEKAVKWSQQVERHREHLINYIIFLRITPFLPNWFINITSPVINVPLKVFFIGTFLGVAPPSFVAIKAGTTLYQLTTAGEAVSWNSIFILMILAVLSILPAIFQKKLKQKFE [TMEM41B] | 0.0116 | -0.0617
3 | MEDLEEDVRFIVDETLDFGGLSPSDSREEEDITVLVTPEKPLRRGLSHRSDPNAVAPAPQGVRLSLGPLSPEKLEEILDEANRLAAQLEQCALQDRESAGEGLGPRRVKPSPRRETFVLKDSPVRDLLPTVNSLTRSTPSPSSLTPRLRSNDRKGSVRALRATSGKRPSNMKRESPTCNLFPASKSPASSPLTRSTPPVRGRAGPSGRAAASEETRAAKLRVSGSGEFVGLTLKFLHPSPPGPPTPIRSVLAPQPSTSNSQRLPRPQGAAAKSSSQLPIPSAIPRPASRMPLTSRSVPPGRGALPPDSLSTRKGLPRPSTAGHRVRESGHKVPVSQRLNLPVMGATRSNLQPPRKVAVPGPTR [PSRC1] | 0.803 | -0.152
4 | MRLTPRALCSAAQAAWRENFPLCGRDVARWFPGHMAKGLKKMQSSLKLVDCIIEVHDARIPLSGRNPLFQETLGLKPHLLVLNKMDLADLTEQQKIMQHLEGEGLKNVIFTNCVKDENVKQIIPMVTELIGRSHRYHRKENLEYCIMVIGVPNVGKSSLINSLRRQHLRKGKATRVGGEPGITRAVMSKIQVSERPLMFLLDTPGVLAPRIESVETGLKLALCGTVLDHLVGEETMADYLLYTLNKHQRFGYVQHYGLGSACDNVERVLKSVAVKLGKTQKVKVLTGTGNVNIIQPNYPAAARDFLQTFRRGLLGSVMLDLDVLRGHPPAETLP [MTG1] | -0.0796 | 0.123
5 | MNQFGPSALINLSNFSSIKPEPASTPPQGSMANSTAVVKIPGTPGAGGRLSPENNQVLTKKKLQDLVREVDPNEQLDEDVEEMLLQIADDFIESVVTAACQLARHRKSSTLEVKDVQLHLERQWNMWIPGFGSEEIRPYKKACTTEAHKQRMALIRKTTKK [TAF12] | 0.151 | -0.0469
6 | MBD4 | 0.427 | -0.669
